1 molecule from patent US20030103903A1 can be followed below.

The assay concerns the target IgE of unfractionated patient serum (pool of patients' sera known to be reactive to the epitope peptide) (human). Kind of assay: inhibition: whole patients' sera pre-incubated with soluble peptide, then probing solid-phase E1 peptide.

B1: soluble form of the epitope peptide … (peptide)
peptide: QGLRGEEMEEMV
The molecule B1 yielded an amount of soluble peptide needed to completely inhibit binding of 70 µg.
